In patent US20160287687A1 (IMMATICS BIOTECHNOLOGIES, published 2016):

Molecular target: T1, HLA-A*02:01 (human)
T1 construct: MHC monomers first loaded with a UV-sensitive peptide (not identified) that is cleaved by UV light and exchanged for the test peptide; captured on streptavidin plates, detected with anti-β2m; also called peptide-receptive MHC molecules; MHC class I
Assay: UV-ligand exchange + anti-b2m ELISA; peptide exchange yield grade (+ >=10%, ++ >=20%, +++ >=50, ++++ >=75%)
Description: Candidate peptides for T cell based therapies according to the present invention were further tested for their MHC binding capacity (affinity). The individual peptide-MHC complexes were produced by UV-ligand exchange, where a UV-sensitive peptide is cleaved upon UV-irradiation, and exchanged with the peptide of interest as analyzed. Only peptide candidates that can effectively bind and stabilize the peptide-receptive MHC molecules prevent dissociation of the MHC complexes. To determine the yield of the exchange reaction, an ELISA was performed based on the detection of the light chain (β2m) of stabilized MHC complexes. The assay was performed as generally described in Rodenko et al. (Rodenko et al., 2006).
96 well MAXISorp plates (NUNC) were coated over night with 2 ug/ml streptavidin in PBS at room temperature, washed 4× and blocked for 1h at 37° C. in 2% BSA containing blocking buffer. Refolded HLA-A*02:01/MLA-001 monomers served as standards, covering the range of 15-500 ng/ml. Peptide-MHC monomers of the UV-exchange reaction were diluted 100 fold in blocking buffer. Samples were incubated for 1 h at 37° C., washed four times, incubated with 2 ug/ml HRP conjugated anti-β2m for 1h at 37° C., washed again and detected with TMB solution that is stopped with […]. Absorption was measured at 450 nm. Candidate peptides that show a high exchange yield (preferably higher than 50%, most preferred higher than 75%) are generally preferred for a generation and production of antibodies or fragments thereof, and/or T cell receptors or fragments thereof, as they show sufficient avidity to the MHC molecules and prevent dissociation of the MHC complexes.

| Binder | peptide exchange yield [%] |
| --- | --- |
| GLASFKSFL (source gene RGS5) [GLASFKSFL (SEQ ID NO: 8)] | 20 to 50 |
| ALDGHLYAV (source gene KBTBD11) [ALDGHLYAV (SEQ ID NO: 71)] | 50 to 75 |
| ILADLLPSL (source gene DHRS7B) [ILADLLPSL (SEQ ID NO: 69)] | 20 to 50 |
| TLISELVQA (source gene CUL7) [TLISELVQA (SEQ ID NO: 97)] | 20 to 50 |
| IQWSIVPEV (source gene GRAMD4) [IQWSIVPEV (SEQ ID NO: 83)] | 50 to 75 |
| LLAASVALA (source gene NPTX2) [LLAASVALA (SEQ ID NO: 64)] | 20 to 50 |
| KLASMLETL (source gene PRKCDBP) [KLASMLETL (SEQ ID NO: 80)] | 50 to 75 |
| KLNVAPLAV (source genes MZT2A, MZT2B) [KLNVAPLAV (SEQ ID NO: 100)] | 20 to 50 |
| SLMGILLRI (source gene CARD8) [SLMGILLRI (SEQ ID NO: 61)] | 20 to 50 |
| SLLLAVTEV (source gene JAG2) [SLLLAVTEV (SEQ ID NO: 89)] | 20 to 50 |
| VLAGPAFLVQL (source gene SLC47A1) [VLAGPAFLVQL (SEQ ID NO: 62)] | 50 to 75 |
| GLLQGKLALL (source gene NQO2) [GLLQGKLALL (SEQ ID NO: 86)] | 20 to 50 |
| YLMDEGAHL (source gene UGDH) [YLMDEGAHL (SEQ ID NO: 84)] | 20 to 50 |
| FVMSEIRTV (source gene ZNF618) [FVMSEIRTV (SEQ ID NO: 85)] | 50 to 75 |
| TLLKTIIKV (source gene CC2D2A) [TLLKTIIKV (SEQ ID NO: 66)] | 20 to 50 |
| YVLTQPPSV (source genes IGLV3-21, IGLV2-14, IGLJ3, IGLC1, IGLC2) [YVLTQPPSV (SEQ ID NO: 68)] | 20 to 50 |
| SLLPALPKL (source gene LRP2) [SLLPALPKL (SEQ ID NO: 81)] | 20 to 50 |
| LLDVLAPLV (source gene COL18A1) [LLDVLAPLV (SEQ ID NO: 67)] | 20 to 50 |
| LLFDVHTTL (source gene C5orf42) [LLFDVHTTL (SEQ ID NO: 102)] | 50 to 75 |
| YSLEKVFGI (source gene MAGED2) [YSLEKVFGI (SEQ ID NO: 72)] | 20 to 50 |
| IIYGGSVTGA (source genes TPI1, TPI1P1) [IIYGGSVTGA (SEQ ID NO: 65)] | 20 to 50 |
| MLLSSLVSL (source gene VKORC1) [MLLSSLVSL (SEQ ID NO: 91)] | 20 to 50 |

Further lines, results first:

| peptide exchange yield [%] | Binder |
| --- | --- |
| 20 to 50 | TLAELHISL (source gene NLRC5) [TLAELHISL (SEQ ID NO: 88)] |
| 20 to 50 | KLTDVGIATL (source gene ALPK2) [KLTDVGIATL (SEQ ID NO: 95)] |
| 20 to 50 | SLIKHKIML (source gene ATP6V1A) [SLIKHKIML (SEQ ID NO: 77)] |
| 50 to 75 | FLIKSINLV (source gene KBTBD3) [FLIKSINLV (SEQ ID NO: 75)] |
| 20 to 50 | KIPPVSPSI (source gene ARRDC3) [KIPPVSPSI (SEQ ID NO: 98)] |
| 50 to 75 | VLFELSKTV (source gene ATP11A) [VLFELSKTV (SEQ ID NO: 6)] |
| 50 to 75 | GLDGIPFTV (source gene TRIP6) [GLDGIPFTV (SEQ ID NO: 73)] |
| 20 to 50 | ILLQKPDSV (source gene RGS5) [ILLQKPDSV (SEQ ID NO: 9)] |
| 50 to 75 | FLLSLIDRL (source gene EGLN3) [FLLSLIDRL (SEQ ID NO: 7)] |
| 50 to 75 | ALADIVWRA (source gene FAM188B) [ALADIVWRA (SEQ ID NO: 79)] |
| 20 to 50 | ALLDTVVQA (source genes CACNA1I, CACNA1H) [ALLDTVVQA (SEQ ID NO: 78)] |
| 20 to 50 | ILHHKVYDL (source gene CYB5A) [ILHHKVYDL (SEQ ID NO: 94)] |
| 50 to 75 | TLAETLVNL (source gene ANKRD52) [TLAETLVNL (SEQ ID NO: 96)] |
| 50 to 75 | SLLQATDFMSL (source gene THY1) [SLLQATDFMSL (SEQ ID NO: 82)] |
| 50 to 75 | GLFHKQVTV (source gene PDZD2) [GLFHKQVTV (SEQ ID NO: 74)] |
| 20 to 50 | HIYDKAFITV (source gene FLT1) [HIYDKAFITV (SEQ ID NO: 101)] |
| 20 to 50 | GLIEDHFDVTV (source gene ERAP1) [GLIEDHFDVTV (SEQ ID NO: 63)] |
| 20 to 50 | GLAPHLEQI (source gene IPO4) [GLAPHLEQI (SEQ ID NO: 99)] |
| 20 to 50 | FTLEKNFVI (source gene COL6A2) [FTLEKNFVI (SEQ ID NO: 90)] |
| 50 to 75 | FLFRDILEL (source gene DROSHA) [FLFRDILEL (SEQ ID NO: 92)] |
| 20 to 50 | VLADDHLIEV (source genes PDZK1P2, PDZK1, PDZK1P1) [VLADDHLIEV (SEQ ID NO: 76)] |
| ≥ 75 | GVMAGDIYSV (source gene PLIN2) [GVMAGDIYSV (SEQ ID NO: 93)] |
